Test [1] deals with T1, human serum albumin (HSA), immobilised on Sepharose (human, UniProt P02768 25-609).
T1 construct: also called HSA-Sepharose; human-serum-albumin (HSA)-Sepharose
The test can be described thus: affinity chromatography on HSA-Sepharose. The method, then:
E. coli cells harbouring pTrpBB-C3 and pTrpBB-C7, and thus encoding the fusion proteins BB-C3 and BB-C7, respectively, were grown overnight at 37° C. in shake-flasks containing 10 ml Tryptic Soy Broth (Difco, USA) (30 g/l) supplemented with yeast extract (Difco) (5 g/l) and kanamycin monosulfate (50 mg/l). The overnight cultures were diluted 10-fold to 100 ml into baffled shake-flasks having the same type of media and grown at 37° C. Gene expression was induced at mid-log phase (A_{600 nm}≅1) by the addition of β-indole acrylic acid to 25 mg/l. Cells were harvested 20 hours after induction, by centrifugation at approximately 6000 g for 10 min. Cells were resuspended in 1/20 of the culture volume in TST (50 mM Tris-HCl pH 8.0. 200 mM NaCl, 0.05% Tween 20, 1 mM EDTA), lysed by sonication and centrifuged at approximately 40,000 g. The samples for the sonication were prepared by sedimenting the shake-flask culture by centrifugation, and thereafter resuspending the cells in 30 ml of cold TST buffer. The samples were stored on ice during a 2 minute pulsed sonication which was performed on a Sonics and Materials Inc. (Danbury, Conn., USA) Vibra Cell (500 W) using a 13 mm standard horn tip, a 70% duty cycle (20 kHz) and with the output control set to 6.5. […] Eluted fractions were monitored for protein content by absorbance measurement at 280 nm and relevant fractions were lyophilised.

The target of test [2] is rabbit anti-human C-peptide antiserum. The test can be described thus: competitive radioimmunoassay against labelled C-peptide tracer; expected concentration 3.31 nM.

T1 sequence (P02768 25-609 limits assumed): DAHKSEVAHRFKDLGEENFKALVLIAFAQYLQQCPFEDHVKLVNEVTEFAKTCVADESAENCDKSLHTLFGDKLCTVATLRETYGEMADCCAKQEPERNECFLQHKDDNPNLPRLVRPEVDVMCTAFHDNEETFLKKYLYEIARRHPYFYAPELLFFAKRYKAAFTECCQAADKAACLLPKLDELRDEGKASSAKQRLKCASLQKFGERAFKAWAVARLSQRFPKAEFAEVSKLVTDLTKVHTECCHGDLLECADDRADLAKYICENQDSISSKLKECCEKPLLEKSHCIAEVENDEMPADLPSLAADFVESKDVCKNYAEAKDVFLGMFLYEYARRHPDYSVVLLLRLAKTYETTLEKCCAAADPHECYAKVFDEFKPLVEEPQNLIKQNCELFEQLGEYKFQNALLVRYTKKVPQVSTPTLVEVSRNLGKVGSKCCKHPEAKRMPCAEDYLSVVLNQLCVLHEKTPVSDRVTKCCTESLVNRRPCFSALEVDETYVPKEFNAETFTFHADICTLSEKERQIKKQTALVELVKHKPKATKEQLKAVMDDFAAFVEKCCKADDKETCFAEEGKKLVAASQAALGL

B1: BB-C7 fusion protein (other)
chain: MKAIFVLNAQHDEAVDANFDQFNKYGVSDYYKNLINNAKTVEGVKDLQAQVVESAKKARISEATDGLSDFLKSQTPAEDTVKSIELAEAKVLANRELDKYGVSDYHKNLINNAKTVEGVKDLQAQVVESAKKARISEATDGLSDFLKSQTPAEDTVKSIELAEAKVLANRELDKYGVSDYYKNLINNAKTVEGVKALIDEILAALPKTDTYKLILNGKTLKGETTTEAVDAATARSFNFPILENSSSVPASQAREAEDLQVGQVELGGGPGAGSLQPLALEGSLQRTASQAREAEDLQVGQVELGGGPGAGSLQPLALEGSLQRTASQAREAEDLQVGQVELGGGPGAGSLQPLALEGSLQRTASQAREAEDLQVGQVELGGGPGAGSLQPLALEGSLQRTASQAREAEDLQVGQVELGGGPGAGSLQPLALEGSLQRTASQAREAEDLQVGQVELGGGPGAGSLQPLALEGSLQRTASQAREAEDLQVGQVELGGGPGAGSLQPLALEGSLQRTASQAVD
notes: Expressed in E. coli from pTrpBB-C7; 54.2 kDa; also called peptide product comprising the fusion partner BB and seven copies of the insulin C-peptide
As for B1, the binding result in test [1] is recorded as “binds”.
In test [2], EAEDLQVGQVELGGGPGAGSLQPLALEGSLQ [Insulin C-peptide (from cleavage of fusion protein BB-C7)] had an Assayed concentration of 2.34 nM and an Assayed concentration as percent of expected of 71%.

B2: BB-C3 fusion protein (other)
chain: MKAIFVLNAQHDEAVDANFDQFNKYGVSDYYKNLINNAKTVEGVKDLQAQVVESAKKARISEATDGLSDFLKSQTPAEDTVKSIELAEAKVLANRELDKYGVSDYHKNLINNAKTVEGVKDLQAQVVESAKKARISEATDGLSDFLKSQTPAEDTVKSIELAEAKVLANRELDKYGVSDYYKNLINNAKTVEGVKALIDEILAALPKTDTYKLILNGKTLKGETTTEAVDAATARSFNFPILENSSSVPASQAREAEDLQVGQVELGGGPGAGSLQPLALEGSLQRTASQAREAEDLQVGQVELGGGPGAGSLQPLALEGSLQRTASQAREAEDLQVGQVELGGGPGAGSLQPLALEGSLQRTASQAVD
notes: Expressed in E. coli from pTrpBB-C3; 39.1 kDa
On to B2, for which the binding result in test [1] is “binds”.

These data come from patent US20040005669A1 (CREATIVE PEPTIDES SWEDEN, published 2004).
